Target: Clostridium difficile strain 630 alanine racemase, recombinant wild type (Clostridium difficile strain 630, UniProt A0AC59G415 1-385)
Test: SEC
Conditions: both partners purified

B1: CdAlr cleavage product, amino acids 1-271 (domain or fragment)
chain: MQKITVPTWAEINLDNLRFNLNNIKNLLEEDIKICGVIKADAYGHGAVEVAKLLEKEKVDYLAVARTAEGIELRQNGITLPILNLGYTPDEAFEDSIKNKITMTVYSLETAQKINEIAKSLGEKACVHVKIDSGMTRIGFQPNEESVQEIIELNKLEYIDLEGMFTHFATADEVSKEYTYKQANNYKFMSDKLDEAGVKIAIKHVSNSAAIMDCPDLRLNMVRAGIILYGHYPSDDVFKDRLELRPAMKLKSKIGHIKQVEPGVGISYGLK
- binding result: binds

Source: publication PMC4089486 (Acta Crystallographica Section D: Biological Crystallography, 2014)
